# Source: paper PMC6717114
# Tests used:
# [1] = biological target: Mouse Cdh23 EC1-2(D101G) (mouse); assay: single-molecule force spectroscopy
# [2] = biological target: Mouse Cdh23 EC1-2 wild-type (mouse) (UniProt Q99PF4); assay: single-molecule force spectroscopy
# Sequence of Mouse Cdh23 EC1-2 wild-type (mouse) (Q99PF4 24-228): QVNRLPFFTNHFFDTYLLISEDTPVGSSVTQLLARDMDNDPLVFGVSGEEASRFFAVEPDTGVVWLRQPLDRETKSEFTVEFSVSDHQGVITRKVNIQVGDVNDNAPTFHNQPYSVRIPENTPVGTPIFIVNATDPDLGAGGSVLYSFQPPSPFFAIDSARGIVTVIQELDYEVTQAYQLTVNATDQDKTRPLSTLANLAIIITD
koff [1] [s⁻¹],koff [2] [s⁻¹],Substance
0.0097,,Mouse Pcdh15 EC1-2 wild-type (from UniProt Q99PJ1-18 27-259) (domain or fragment)
,0.044,Mouse Pcdh15 EC1-2(D157G) (domain or fragment)
